B1: hexahistidine (6His)-tagged Gef3 (natural protein)
chain: MSNPRMFQSRGKRVVSDSLPIANSTHTLEDTLKLRPDWTIALSQHETETRSTRTSCSTTTESTIAMRSKQKAIISVLEEFRDSEAAYVHDLHVAQRYYADRLSDRVKKSEWKDVFEIFLVLCKQASLFEIEMHKSLNDEINYILDDQDACLKPKPSVAQLFLSWLPKLSAVYGRYCVIQENIGKKVEKWMKNSSISEYLQECDSMAKIESNSWNLDSFLVKPVQRFLKYPLLLNQLYRSASLGIISDYVLLGEACHKSEIASQRMNELKRRRDIIITALDSVSNSQEVLLLSTDSIDKKIAKLQNSTNIFYVPEHEPILAFVHQLSSSYTNLLNLRSAICDWLKFSRYHYLKFFTFVEAYSVFCKDTKSADKWALISVALDNIAKGAVLRLTEQCQTSVLRPISNGILFFRNPLCVTDVWIKKATAFSKRRQSQVFEEDLESFPLLSNCLLEELPLFLEMARNVTDECILAFAQIQATFYDTIQKVLEPVVAKFNLTDHQDIPSIESIMDFTSLRSSMESSPKSK
B3: GST-Rho4 (enzyme)
chain: MSAFKKSGSKSETSKKLVVVGDGGCGKTCLLIVFSSGTFPERYVPTVFENYITDITYGPNSKVIELALWDTAGQEEYDRLRPLSYPNSNVILLCFSIDCPASLNNVTEKWYPEVQHFCPRTPIVLVGLKADLRKDRNATEVLRTQGLTPVTYQQAQSVALSMNAPYVECSAKENTGVNEVFQLAVGLTIKKSFSFSKKSCVIL

Holding throughout (experiment): pull-down
The target of experiment [1] is B3.
For experiment [2], the target named is T1, 3FLAG-Gef3 (S. pombe, UniProt O59679 1-525).
T1 sequence: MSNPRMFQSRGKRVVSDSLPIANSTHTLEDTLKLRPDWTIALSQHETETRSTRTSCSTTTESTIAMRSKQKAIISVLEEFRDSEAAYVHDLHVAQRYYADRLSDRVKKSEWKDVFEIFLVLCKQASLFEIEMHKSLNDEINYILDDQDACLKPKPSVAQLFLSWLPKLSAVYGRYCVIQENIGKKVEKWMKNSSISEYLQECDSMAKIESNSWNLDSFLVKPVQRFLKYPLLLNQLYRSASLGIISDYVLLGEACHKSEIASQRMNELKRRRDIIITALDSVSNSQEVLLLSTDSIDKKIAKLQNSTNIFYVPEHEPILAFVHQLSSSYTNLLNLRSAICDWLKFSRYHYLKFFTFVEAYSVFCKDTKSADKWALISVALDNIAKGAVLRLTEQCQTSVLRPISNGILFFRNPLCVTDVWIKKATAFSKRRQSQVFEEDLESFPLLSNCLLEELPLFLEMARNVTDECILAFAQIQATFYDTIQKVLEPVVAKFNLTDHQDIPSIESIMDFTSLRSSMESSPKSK

Experiment [3] concerns the target T1, 3FLAG-Gef3. The source holds these as a separate data set.
Experiment [4] has as its target B1.

Read-outs that look alike come from different tables or passages of the source.

Regarding B1, the “fold more pulled down than by the GST control” value in experiment [1] was roughly 35 times.

B2: GST-Rho2 (enzyme)
chain: MLQSQPIRRKLVVVGDGACGKTSLLSVFTLGYFPTEYVPTVFENYVSDCRVDGKSVQLALWDTAGQEEYERLRPMSYAKAHIILVGFAIDSPDSLENVSTKWIEEINTLCPNVPFILVGMKADLRSDPVAIEEMRRRNQNFVKSQQAELVAQRIGARKYMECSSLTGDGVDDVFEAATRAALTVRDSENDKSSTKCCIIS
With B2, in experiment [2], the binding result is “binds”.

For B3, the binding result in experiment [3] is “binds”.

B4: GST-Rho5 (enzyme)
chain: MTTELRRKLVIVGDGACGKTCLLIVFSKGTFPEVYVPTVFENYVADVEVDGRHIELALWDTAGQEDYDRLRPLSYPDSHVVLICFSVDAPESLDNVQEKWISEVLHFCSNLPILLVGCKVDLRNDPKTIEELSKTSQKPITFEEGQVVAQKIGAYKYLECSAKLNEGVNEVFETAARASMLKFKPASVPKTKKKKHCILL
For the molecule B4, the binding result in experiment [2] and in experiment [4] was “binds” throughout.

B5: GST-Rho1 (enzyme)
chain: MATELRRKLVIVGDGACGKTCLLIVFSKGTFPEVYVPTVFENYVADVEVDGRHVELALWDTAGQEDYDRLRPLSYPDSHVILICFAVDSPDSLDNVQEKWISEVLHFCSSLPILLVACKADLRNDPKIIEELSKTNQHPVTTEEGQAVAQKIGAYKYLECSAKTNEGVREVFESATRAAMLKHKPKVKPSSGTKKKKRCILL
With B5, the binding result in experiment [4] and in experiment [3] was “binds” in each case.

For the origin of these results see article PMC4294672 (Molecular Biology of the Cell, 2015).
